Assay results as given in patent publication US20160009800A1 (XOMA US, published 2016).

Columns and labels:
[1] = biological target: T1, human insulin receptor complexed with human insulin (human, UniProt P06213 28-1382; P01308 25-54; P01308 90-110); experiment: KinExA antibody depletion by hINSR8-CHOK1 cells, with 175 nM insulin
T1 construct: whole, on cells;mature; also called hINSR-hINS complex; INS/INSR complex
Procedure: (§1) Beads were rotated at room temperature for 6 hours then allowed to settle. Supernatant was replaced with PBS with 50 mg/mL BSA Fraction V (Sigma-Aldrich, St. Louis, Mo.) and rotated overnight at 4° C. […] On the KinExA 3000 the sample was injected at 0.25 mL/minute for 240 seconds, then rinsed for 60 seconds in running buffer (PBS with 0.05% sodium azide), then 240 seconds of the detection solution was injected, followed by a final 90 second wash at 1 mL/minute. The difference in voltage from an early initial time-point and a time point near the end of the run was measured and used to calculate affinities. The INSR concentration on the cells was estimated at 2.5×10⁵ receptors/cell. Affinity was determined using the KinExA software (Sāpidyne, Boise Id.) and EC50's were calculated by non-linear fit in Prism (GraphPad Software, La Jolla Calif.).
(§2) Samples were incubated overnight at 4° C. for 18 hours then centrifuged to pellet cells and supernatants were removed for testing on the KinExA. […] Detection solution used was R-PE-(Fab′)2 fragment goat anti-Human IgG(H+L) (Jackson Immuno Research, West Grove Pa.).

[2] = biological target: T2, mouse insulin receptor complexed with human insulin (mouse; human, UniProt P15208 28-1372; P01308 25-54; P01308 90-110); experiment: FACS, CHO-K1 mouse INSR cells, signal with insulin divided by signal without insulin [cont'd]
T2 construct: whole, on cells;mature; also called muINSR/hINS complex
Procedure: (§3) Twenty five microliter aliquots of cells were plated into 96 well plates, mixed with 25 ul of antibody or PPE and incubated on ice for 1 h.
(§4) The cells were then washed once with FACS buffer and the binding of the antibody was detected by the addition of 25 ul of an appropriate fluorochrome-conjugated secondary antibody. […] After a final 15 min incubation on ice the cells were washed and the pellets resuspended in FACS buffer. The cells were analyzed on a FACSCAN™ (Becton-Dickinson, Milipitas, Calif.) and the data analyzed in both FLOWJO™ (Treestar, Ashland, Oreg.) and Microsoft Excel™.

[3] = biological target: T1, human insulin receptor complexed with …; experiment: KinExA, affinity with insulin against affinity without insulin
Procedure: as §1, §2

[4] = biological target: T1, human insulin receptor complexed with …; experiment: FACS, serum-starved CHO-K1 cells expressing human INSR, with insulin [cont'd]
Procedure: as §3, §4

[5] = biological target: T3, human insulin receptor (human, UniProt P06213 28-1382); experiment: cell-based or functional assay
[6] = biological target: T3, human insulin receptor; experiment: cell-based or functional assay; remark: listed apart in the source
[7] = biological target: T4, mouse insulin receptor (mouse, UniProt P15208 28-1372); experiment: cell-based or functional assay
[8] = biological target: T3, human insulin receptor; experiment: KinExA antibody depletion by hINSR8-CHOK1 cells, without insulin
Procedure: as §1, §2

[9] = biological target: T4, mouse insulin receptor; experiment: FACS, serum-starved CHO-K1 cells expressing mouse INSR, no insulin [cont'd]
[10] = biological target: T2, mouse insulin receptor complexed with …; experiment: FACS, serum-starved CHO-K1 cells expressing mouse INSR, with insulin [cont'd]
Procedure: as §3, §4

[11] = biological target: T3, human insulin receptor; experiment: FACS, serum-starved CHO-K1 cells expressing human INSR, no insulin [cont'd]
Procedure: as §3, §4

[12] = biological target: T1, human insulin receptor complexed with …; experiment: FACS, CHO-K1 human INSR cells, signal with insulin divided by signal without insulin [cont'd]
Procedure: as §3, §4

[13] = biological target: T1, human insulin receptor complexed with …; experiment: FACS, CHO-K1 human INSR cells, signal with insulin divided by signal without insulin
Procedure: as §3, §4

[14] = biological target: T3, human insulin receptor; experiment: FACS, serum-starved CHO-K1 cells expressing human INSR, no insulin
Procedure: as §3, §4

[15] = biological target: T3, human insulin receptor; experiment: cell-based or functional assay; remark: listed apart in the source
[16] = biological target: T4, mouse insulin receptor; experiment: cell-based or functional assay; remark: listed apart in the source
[17] = biological target: T4, mouse insulin receptor; experiment: FACS, serum-starved CHO-K1 cells expressing mouse INSR, no insulin
[18] = biological target: T2, mouse insulin receptor complexed with …; experiment: FACS, CHO-K1 mouse INSR cells, signal with insulin divided by signal without insulin
Procedure: as §3, §4

[19] = biological target: T1, human insulin receptor complexed with …; experiment: FACS, serum-starved CHO-K1 cells expressing human INSR, with insulin
Procedure: as §3, §4

[20] = biological target: T3, human insulin receptor; experiment: cell-based or functional assay; remark: listed apart in the source
[21] = biological target: T2, mouse insulin receptor complexed with …; experiment: FACS, serum-starved CHO-K1 cells expressing mouse INSR, with insulin
Procedure: as §3, §4

[22] = biological target: T3, human insulin receptor; experiment: cell-based or functional assay; remark: listed apart in the source
[23] = biological target: T4, mouse insulin receptor; experiment: FACS on mouse INSR; conditions not given on the sheet [cont'd]
[24] = biological target: T4, mouse insulin receptor; experiment: flow cytometry, biotinylated IgG on mINSR-CHOK1 cells

B1: Ab079 (antibody, IgG2, V domains shown)
VH: QMQLVQSGAEMKKPGASVKVSCKASGYSFSDYGITWVRQAPGQGPEWMGWISGYNGNTNYAQKFQDRVTMTTDTSTSTAYMELRSLKSDDTAVYFCARARGVWMFDNWGQGTLVTVSS
VL: AIRMTQSPSTLSASVGDRVTITCRASQSISTWLAWYQQKPGKAPKLLIYTTSTLESGVPSRFSGSRSGTEFTLTISSLQPDDFATYYCQQYNSYPLTFGGGTKVEIK
notes: also called XPA.015.245
[1]
  Kd: 0.496 nM
[2]
  FACS area under log transformed data MFI ratio (+insulin/-insulin): 1.39
[3]
  Fold Improvement with Insulin: 19.4 fold
[4]
  FACS area under log transformed data MFI: 385
[5]
  pAKT assay, fold-decrease in insulin EC50 relative to isotype control Ab: 6.7 fold
[6]
  fold-change in insulin EC50 (pAkt) relative to isotype control, 10 ug/ml Ab079, human INSR CHO-K1 cells: 7 fold
[7]
  fold-change in insulin EC50 (pAkt) relative to isotype control, 20 ug/ml Ab079, mouse INSR CHO-K1 cells: 8 fold
[8]
  Kd: 9.6 nM
[9]
  FACS area under log transformed data MFI: 154
[10]
  FACS area under log transformed data MFI: 215
[11]
  FACS area under log transformed data MFI: 296
[12]
  FACS area under log transformed data MFI ratio (+insulin/-insulin): 1.3

B2: Ab085 (antibody, IgG2, V domains shown)
VH: EVQLVESGGGVVQPGRSLRLSCAASGFIFSSYGMHWVRQVPDKGLEWVAGISLRGSDNYYADSVKGRFTISRDNSKNTLYLQMNNLRPDDTAVYYCARGFRWPVTPFDHWGQGTLVTVSS
VL: QTVVTQEPSFSVSPGGTVTLTCGLTSGSVSTRNFPGWYQQTPGQTLRTLIYNTNTRSSGVPDRFSGSILGNKAALTITGAQADDESDYYCVLYMTGDIWVFGGGTKVTVLG
notes: also called XPA.015.275
[1]
  Kd: 0.2 nM
[5]
  pAKT assay, fold-decrease in insulin EC50 relative to isotype control Ab: 8.9 fold
[6]
  fold-change in insulin EC50 (pAkt) relative to isotype control, 1 ug/ml Ab085, human INSR CHO-K1 cells: 3 fold
  fold-change in insulin EC50 (pAkt) relative to isotype control, 10 ug/ml Ab085, human INSR CHO-K1 cells: 9 fold
[7]
  fold-change in insulin EC50 (pAkt) relative to isotype control, 20 ug/ml Ab085, mouse INSR CHO-K1 cells: 8 fold

B3: Ab062 (antibody, IgG2, V domains shown)
VH: QVQLQQWGAGLLKPSETLSLTCAVYGGSFSGYYWSWIRQPPGKGLEWIGEINHSGSTNYNPSLKSRVTISVDTSKNQFSLKLSSVTAADTAVYYCARGPSGWYIREFDYWGQGTLVTVSS
VL: QSVLTQPPSVSGAPGQRVTISCTGSSSNIGAGYDVHWYQQLPGTAPKLLIYGNSNRPSGVPDRFSGSKSGTSASLAITGLQAEDEADYYCQSYDSSLSGSGVFGGGTKVTVL
notes: also called XPA.015.211
[1]
  Kd: 0.108 nM
[13]
  FACS area under log transformed data MFI ratio (+insulin/-insulin): 0.57
[3]
  Fold Improvement with Insulin: 1.1 fold
[14]
  FACS area under log transformed data MFI: 1400
[15]
  EC50 of pAkt activation without insulin, human INSR CHO-K1 cells: 2.43 nM
  relative maximum pAkt activation without insulin, human INSR CHO-K1 cells: 52%
[16]
  EC50 of pAkt activation without insulin, mouse INSR CHO-K1 cells: 1.1 nM
  relative maximum pAkt activation without insulin, mouse INSR CHO-K1 cells: 34%
[17]
  FACS area under log transformed data MFI: 1450
[8]
  Kd: 0.124 nM
[18]
  FACS area under log transformed data MFI ratio (+insulin/-insulin): 0.7
[19]
  FACS area under log transformed data MFI: 790
[20]
  fold rise of insulin EC50 (pAkt) in the presence of Ab062: 6.6 fold
[21]
  FACS area under log transformed data MFI: 1010

B4: Ab061 (antibody, IgG2, V domains shown)
VH: QMQLVQSGAEVKKTGESLKISCQGYGYRFTDNWIGWVRQMPGRGLEWMGIIYPGDSETRYSPSFQGQVTISADKSISTAYLEWSSLKASDTAMYYCARHAPLAVAGMALGDWGQGTLVTVSS
VL: QTVVTQEPSFSVSPGGTVTLTCGLSSGSVSTGYSPGWYQQTPGQAPRTLVYNTNTRSSGVPDRFSGSILGNKAALTITGAQADDESDYYCALYMGSGTYVFGGGTKLTVL
notes: Negative modulator; also called XPA.015.209
[14]
  FACS area under log transformed data MFI: 204
[17]
  FACS area under log transformed data MFI: 462
[18]
  FACS area under log transformed data MFI ratio (+insulin/-insulin): 0.37
[22]
  fold change in insulin EC50 (pAKT) relative to isotype control mAb, 10 ug/mL Ab061: 269 fold
[21]
  FACS area under log transformed data MFI: 170

B5: Ab070 (antibody, IgG2, V domains shown)
VH: EVQLVQSGAEVKKPGESLKISCKGSGYSFTSYWIGWVRQMPGKGLEWMGIIYPGDSDTRYSPSFQGQVTISADKSISTSYLQWSSLRASDTAMYYCARLGSGWYGNDYWGQGTLVTVSS
VL: SSELTQDPAVSVALGQTVRITCQGDSLRSYYTSWYQQKPGQAPVLVIFGKNNRPSGIPDRFSGSSSGNTASLTITGAQAEDEADYYCNSRDSSGNYAVFGGGTQLTVL
notes: Negative modulator; also called XPA.015.226
[2]
  FACS area under log transformed data MFI ratio (+insulin/-insulin): 0.66
[9]
  FACS area under log transformed data MFI: 587
[22]
  fold change in insulin EC50 (pAKT) relative to isotype control mAb, 20 ug/mL Ab070: 17 fold
[10]
  FACS area under log transformed data MFI: 389
[11]
  FACS area under log transformed data MFI: 283

B6: Ab045 (antibody, V domains shown)
VH: EVQLLESGGGLVQPGGSLRLSCAASGFTFSSYWMSWVRQAPGKGLEWVSGISGSGGSTDYADSVKGRFTISRDNSKNTLYLQMNSLRAEDTAVYYCARELPAFWSAFDYWGQGTLVTVSF
VL: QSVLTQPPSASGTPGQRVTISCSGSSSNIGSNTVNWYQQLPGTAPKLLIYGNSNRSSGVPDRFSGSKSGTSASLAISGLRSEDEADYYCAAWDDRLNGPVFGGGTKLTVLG
notes: also called XPA.015.111
[23]
  binding result: binds

B7: Ab047 (antibody, V domains shown)
VH: EVQLLESGGGLVQPGGSLRLSCAASGFTFSSYAMSWVRQAPGKGLEWVSSISGGSTYYADSRKGRFTISRDNSKNTLYLQMNSLRAEDTAVYYCARHADQWPGSWFDPWGQGTLVTVSS
VL: QSVLTQPPSASGTPGQRVTISCSGSSSNIGSNTVNWYQQLPGTAPKLLIYDNNKRPSGVPDRFSGSKSGTSASLAISGLRSEDEADYYCQSYDSSLSGWEVFGGGTKLTVLG
notes: also called XPA.015.121
[23]
  binding result: no binding

B8: Ab049 (antibody, V domains shown)
VH: EVQLLESGGGLVQPGGSLRLSCAASGFTFSSNYMSWVRQAPGKGLEWVSSISGGSTYYADSRKGRFTISRDNSKNTLYLQMNSLRAEDTAVYYCARLDWSSGAFDIWGQGTLVTVSS
VL: QSVLTQPPSASGTPGQRVTISCSGRSSNIGYNYVSWYQQLPGTAPKLLIYGNSNRPSGVPDRFSGSKSGTSASLAISGLRSEDEADYYCAAWDDSLSGPVFGGGTKLTVLG
notes: also called XPA.015.165
[23]
  binding result: no binding

B9: Ab004 (antibody, V domains shown)
VH: EVQLLESGGGLVQPGGSLRLSCAASGFTFRNFAMMWVRQAPGKGLEWVSGISWNSGSIGYADSVKGRFTISRDNSKNTLYLQMNSLRAEDTAVYYCARPSGAYPTPFDNWGQGTLVTVSS
VL: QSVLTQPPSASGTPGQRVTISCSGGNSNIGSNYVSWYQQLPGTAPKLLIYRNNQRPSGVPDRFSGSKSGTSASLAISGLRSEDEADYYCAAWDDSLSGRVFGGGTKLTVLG
notes: Sole member of Bin 7; also called XPA.015.066
[24]
  binding result: binds

B10: Ab086 (antibody, IgG2, V domains shown)
VH: EVQLVETGGGVVRPGGSLRLSCAASGFTFGDYGMSWVRQAPGKGLEWVSGINWNGGSTGYADSVKGRFTISRDNAKNSLYLQMNSLRAEDTALYYCARDILGVEFDYWGQGTLVTVSS
VL: QSALTQPASVSGSLGQSITISCTGTSSDIGLYKFVSWYQQHPGKAPKLMIYDVSYRPSGVSNRFSGSSSGNTASLTISGLQAEDEADYYCNSYTSSSTLVVFGGGTKLTVL
notes: also called XPA.015.219
[24]
  binding result: binds
